For the experiment, the target named is SARS-CoV-2 receptor binding domain (RBD), Wuhan-1 (SARS-CoV-2 Wuhan-Hu-1) (UniProt P0DTC2).

In turn, CC6.33 IgG (antibody) came in with a neutralization IC50 against pseudotyped SARS-CoV-2 (Hela-hACE2 cells) of 0.228 µg/mL.

The values are drawn from paper doi:10.1101/2022.01.06.475303.
